Assays:
HLA-A*80:01 [1] = assay: IEDB peptide-MHC binding, purified MHC/direct/fluorescence; filed as Kd, often an IC50 or EC50 that approximates it; ≥ and ≤ were set here for values at or beyond the usual limits of such assays; conditions: source organism: Cryptosporidium parvum Iowa II
HLA-A*26:01 [2] = assay: as above; conditions: source organism: Cryptosporidium parvum Iowa II
HLA-A*25:01 [3] = assay: as above; conditions: source organism: Cryptosporidium parvum Iowa II
HLA-B*18:01 [4] = assay: as above; conditions: source organism: Cryptosporidium parvum Iowa II
HLA-B*46:01 [5] = assay: as above; conditions: source organism: Cryptosporidium parvum Iowa II
HLA-B*15:17 [6] = assay: as above; conditions: source organism: Cryptosporidium parvum Iowa II
HLA-A*03:01 [7] = assay: as above; conditions: source organism: Cryptosporidium parvum Iowa II
HLA-A*02:12 = assay: IEDB peptide-MHC binding, purified MHC/competitive/fluorescence; filed as Kd, often an IC50 or EC50 that approximates it; ≥ and ≤ were set here for values at or beyond the usual limits of such assays; conditions: source organism: Campylobacter jejuni subsp. jejuni NCTC 11168 = ATCC 700819
HLA-A*02:11 = assay: as above; conditions: source organism: Campylobacter jejuni subsp. jejuni NCTC 11168 = ATCC 700819
HLA-B*27:03 = assay: as above
HLA-A*26:01 [8] = assay: as above
HLA-A*24:03 = assay: as above; conditions: source organism: Campylobacter jejuni subsp. jejuni NCTC 11168 = ATCC 700819
HLA-A*02:01 [9] = assay: as above; conditions: source organism: Campylobacter jejuni subsp. jejuni NCTC 11168 = ATCC 700819
HLA-B*51:01 [10] = assay: as above
HLA-B*18:01 [11] = assay: as above
HLA-A*29:02 [12] = assay: as above; conditions: source organism: Campylobacter jejuni subsp. jejuni NCTC 11168 = ATCC 700819
HLA-B*15:01 = assay: as above
HLA-B*46:01 [13] = assay: as above
HLA-B*57:01 = assay: as above
HLA-A*68:02 [14] = assay: as above; conditions: source organism: Campylobacter jejuni subsp. jejuni NCTC 11168 = ATCC 700819
HLA-A*23:01 = assay: as above; conditions: source organism: Campylobacter jejuni subsp. jejuni NCTC 11168 = ATCC 700819
HLA-B*39:01 = assay: as above; conditions: source organism: Campylobacter jejuni subsp. jejuni NCTC 11168 = ATCC 700819
HLA-A*69:01 = assay: as above; conditions: source organism: Campylobacter jejuni subsp. jejuni NCTC 11168 = ATCC 700819
HLA-A*02:16 = assay: as above; conditions: source organism: Campylobacter jejuni subsp. jejuni NCTC 11168 = ATCC 700819
HLA-A*02:19 = assay: as above; conditions: source organism: Campylobacter jejuni subsp. jejuni NCTC 11168 = ATCC 700819
HLA-A*02:03 = assay: as above; conditions: source organism: Campylobacter jejuni subsp. jejuni NCTC 11168 = ATCC 700819
HLA-B*15:17 [15] = assay: as above
HLA-A*03:01 [16] = assay: as above; conditions: source organism: Campylobacter jejuni subsp. jejuni NCTC 11168 = ATCC 700819
HLA-B*58:01 [17] = assay: IEDB peptide-MHC binding, cellular MHC/competitive/fluorescence; ≥ and ≤ were set here for values at or beyond the usual limits of such assays; conditions: source organism: Human herpesvirus 4 strain B95-8
HLA-B*14:02 = assay: IEDB peptide-MHC binding, purified MHC/competitive/fluorescence; ≥ and ≤ were set here for values at or beyond the usual limits of such assays; conditions: source organism: Monodelphis domestica
HLA-A*01:01 = assay: as above; conditions: source organism: Monodelphis domestica
HLA-A*31:01 = assay: as above; conditions: source organism: Monodelphis domestica
HLA-B*08:01 = assay: as above; conditions: source organism: Monodelphis domestica
HLA-B*44:03 = assay: as above; conditions: source organism: Monodelphis domestica
HLA-B*07:02 = assay: as above; conditions: source organism: Monodelphis domestica
HLA-B*37:01 = assay: as above; conditions: source organism: Monodelphis domestica
HLA-A*02:01 [18] = assay: as above; conditions: source organism: Monodelphis domestica
HLA-A*25:01 [19] = assay: as above; conditions: source organism: Monodelphis domestica
HLA-B*51:01 [20] = assay: as above; conditions: source organism: Monodelphis domestica
HLA-B*18:01 [21] = assay: as above; conditions: source organism: Monodelphis domestica
HLA-A*29:02 [22] = assay: as above; conditions: source organism: Monodelphis domestica
HLA-A*24:02 = assay: as above; conditions: source organism: Monodelphis domestica
HLA-A*68:02 [23] = assay: as above; conditions: source organism: Monodelphis domestica
HLA-B*40:02 = assay: as above; conditions: source organism: Monodelphis domestica
HLA-A*11:01 = assay: as above; conditions: source organism: Monodelphis domestica
HLA-B*53:01 = assay: as above; conditions: source organism: Monodelphis domestica
HLA-B*35:01 = assay: as above; conditions: source organism: Monodelphis domestica
HLA-B*58:01 [24] = assay: as above; conditions: source organism: Monodelphis domestica
HLA-A*03:01 [25] = assay: as above; conditions: source organism: Monodelphis domestica
HLA-A*80:01 [26] = assay: IEDB peptide-MHC binding, purified MHC/competitive/fluorescence; filed as Kd, often an IC50 or EC50 that approximates it; ≥ and ≤ were set here for values at or beyond the usual limits of such assays; conditions: source organism: Homo sapiens
HLA-A*25:01 [27] = assay: as above; conditions: source organism: Homo sapiens
HLA-A*02:01 [28] = assay: IEDB peptide-MHC binding, purified MHC/direct/fluorescence; filed as Kd, often an IC50 or EC50 that approximates it; ≥ and ≤ were set here for values at or beyond the usual limits of such assays; conditions: source organism: Homo sapiens
[29] = source organism: Campylobacter jejuni subsp. jejuni NCTC 11168 = ATCC 700819

RAIMTTWTV
Kd (HLA-A*80:01 [1]): ≥ 20 µM
Kd (HLA-A*26:01 [2]): ≥ 20 µM
Kd (HLA-A*25:01 [3]): ≥ 20 µM
Kd (HLA-B*18:01 [4]): ≥ 20 µM
Kd (HLA-B*46:01 [5]): ≥ 20 µM
Kd (HLA-B*15:17 [6]): 60 nM
Kd (HLA-A*03:01 [7]): ≥ 20 µM

LELAEITAE
Kd (HLA-A*02:12): ≥ 20 µM
Kd (HLA-A*02:11): ≥ 20 µM
Kd (HLA-B*27:03; [29]): ≥ 20 µM
Kd (HLA-A*26:01 [8]; [29]): ≥ 20 µM
Kd (HLA-A*24:03): ≥ 20 µM
Kd (HLA-A*02:01 [9]): ≥ 20 µM
Kd (HLA-B*51:01 [10]; [29]): ≥ 20 µM
Kd (HLA-B*18:01 [11]; [29]): 511 nM
Kd (HLA-A*29:02 [12]): ≥ 20 µM
Kd (HLA-B*15:01; [29]): ≥ 20 µM
Kd (HLA-B*46:01 [13]; [29]): ≥ 20 µM
Kd (HLA-B*57:01; [29]): ≥ 20 µM
Kd (HLA-A*68:02 [14]): ≥ 20 µM
Kd (HLA-A*23:01): ≥ 20 µM
Kd (HLA-B*39:01): ≥ 20 µM
Kd (HLA-A*69:01): ≥ 20 µM
Kd (HLA-A*02:16): ≥ 20 µM
Kd (HLA-A*02:19): ≥ 20 µM
Kd (HLA-A*02:03): ≥ 20 µM
Kd (HLA-B*15:17 [15]; [29]): ≥ 20 µM
Kd (HLA-A*03:01 [16]): ≥ 20 µM

NAAEPEQPW
IC50 (HLA-B*58:01 [17]): 5 µM

LEYFQFVKKLL
IC50 (HLA-B*14:02): ≥ 20 µM
IC50 (HLA-A*01:01): ≥ 20 µM
IC50 (HLA-A*31:01): ≥ 20 µM
IC50 (HLA-B*08:01): 2400 nM
IC50 (HLA-B*44:03): ≥ 20 µM
IC50 (HLA-B*07:02): ≥ 20 µM
IC50 (HLA-B*37:01): ≥ 20 µM
IC50 (HLA-A*02:01 [18]): ≥ 20 µM
IC50 (HLA-A*25:01 [19]): ≥ 20 µM
IC50 (HLA-B*51:01 [20]): ≥ 20 µM
IC50 (HLA-B*18:01 [21]): 4.72 µM
IC50 (HLA-A*29:02 [22]): ≥ 20 µM
IC50 (HLA-A*24:02): ≥ 20 µM
IC50 (HLA-A*68:02 [23]): ≥ 20 µM
IC50 (HLA-B*40:02): 126 nM
IC50 (HLA-A*11:01): ≥ 20 µM
IC50 (HLA-B*53:01): ≥ 20 µM
IC50 (HLA-B*35:01): ≥ 20 µM
IC50 (HLA-B*58:01 [24]): ≥ 20 µM
IC50 (HLA-A*03:01 [25]): ≥ 20 µM

HLLCQAFSV
Kd (HLA-A*80:01 [26]): ≥ 20 µM
Kd (HLA-B*27:03; source organism: Homo sapiens): ≥ 20 µM
Kd (HLA-A*26:01 [8]; source organism: Homo sapiens): ≥ 20 µM
Kd (HLA-A*25:01 [27]): ≥ 20 µM
Kd (HLA-B*51:01 [10]; source organism: Homo sapiens): ≥ 20 µM
Kd (HLA-B*18:01 [11]; source organism: Homo sapiens): ≥ 20000 nM
Kd (HLA-B*15:01; source organism: Homo sapiens): ≥ 20 µM
Kd (HLA-B*46:01 [13]; source organism: Homo sapiens): ≥ 20 µM
Kd (HLA-B*57:01; source organism: Homo sapiens): ≥ 20 µM
Kd (HLA-B*15:17 [15]; source organism: Homo sapiens): ≥ 20 µM
Kd (HLA-A*02:01 [28]): 0.2 nM
